In this assay the target is Mouse FGFR4/β-klotho complex co-expressed in L6 cells (mouse) (UniProt Q03142). The assay is described as follows: cell-based or functional assay.
Mouse FGFR4/β-klotho complex co-expressed in L6 cells (mouse), sequence (Q03142 17-799, chain 1 of 2): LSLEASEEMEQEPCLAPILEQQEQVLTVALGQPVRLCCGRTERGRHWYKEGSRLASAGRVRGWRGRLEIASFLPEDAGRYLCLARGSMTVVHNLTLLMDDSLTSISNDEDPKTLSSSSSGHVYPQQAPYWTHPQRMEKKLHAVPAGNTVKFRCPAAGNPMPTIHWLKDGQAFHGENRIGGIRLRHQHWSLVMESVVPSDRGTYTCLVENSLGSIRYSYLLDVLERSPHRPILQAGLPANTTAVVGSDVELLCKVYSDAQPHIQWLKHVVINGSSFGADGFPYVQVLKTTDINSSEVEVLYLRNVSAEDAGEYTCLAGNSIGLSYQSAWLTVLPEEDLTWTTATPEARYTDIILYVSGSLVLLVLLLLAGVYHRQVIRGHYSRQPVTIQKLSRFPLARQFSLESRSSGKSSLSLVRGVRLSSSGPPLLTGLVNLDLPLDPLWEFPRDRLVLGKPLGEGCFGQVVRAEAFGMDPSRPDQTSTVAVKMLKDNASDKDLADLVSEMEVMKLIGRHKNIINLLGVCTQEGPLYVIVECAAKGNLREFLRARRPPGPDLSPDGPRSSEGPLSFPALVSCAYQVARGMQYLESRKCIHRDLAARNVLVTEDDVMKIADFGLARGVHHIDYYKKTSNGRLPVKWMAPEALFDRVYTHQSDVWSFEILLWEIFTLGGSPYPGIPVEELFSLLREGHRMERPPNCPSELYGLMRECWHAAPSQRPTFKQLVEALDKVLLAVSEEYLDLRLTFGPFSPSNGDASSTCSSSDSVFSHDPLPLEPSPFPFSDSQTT
Mouse FGFR4/β-klotho complex co-expressed in L6 cells (mouse), sequence (Q99N32 whole entry, chain 2 of 2, further chain): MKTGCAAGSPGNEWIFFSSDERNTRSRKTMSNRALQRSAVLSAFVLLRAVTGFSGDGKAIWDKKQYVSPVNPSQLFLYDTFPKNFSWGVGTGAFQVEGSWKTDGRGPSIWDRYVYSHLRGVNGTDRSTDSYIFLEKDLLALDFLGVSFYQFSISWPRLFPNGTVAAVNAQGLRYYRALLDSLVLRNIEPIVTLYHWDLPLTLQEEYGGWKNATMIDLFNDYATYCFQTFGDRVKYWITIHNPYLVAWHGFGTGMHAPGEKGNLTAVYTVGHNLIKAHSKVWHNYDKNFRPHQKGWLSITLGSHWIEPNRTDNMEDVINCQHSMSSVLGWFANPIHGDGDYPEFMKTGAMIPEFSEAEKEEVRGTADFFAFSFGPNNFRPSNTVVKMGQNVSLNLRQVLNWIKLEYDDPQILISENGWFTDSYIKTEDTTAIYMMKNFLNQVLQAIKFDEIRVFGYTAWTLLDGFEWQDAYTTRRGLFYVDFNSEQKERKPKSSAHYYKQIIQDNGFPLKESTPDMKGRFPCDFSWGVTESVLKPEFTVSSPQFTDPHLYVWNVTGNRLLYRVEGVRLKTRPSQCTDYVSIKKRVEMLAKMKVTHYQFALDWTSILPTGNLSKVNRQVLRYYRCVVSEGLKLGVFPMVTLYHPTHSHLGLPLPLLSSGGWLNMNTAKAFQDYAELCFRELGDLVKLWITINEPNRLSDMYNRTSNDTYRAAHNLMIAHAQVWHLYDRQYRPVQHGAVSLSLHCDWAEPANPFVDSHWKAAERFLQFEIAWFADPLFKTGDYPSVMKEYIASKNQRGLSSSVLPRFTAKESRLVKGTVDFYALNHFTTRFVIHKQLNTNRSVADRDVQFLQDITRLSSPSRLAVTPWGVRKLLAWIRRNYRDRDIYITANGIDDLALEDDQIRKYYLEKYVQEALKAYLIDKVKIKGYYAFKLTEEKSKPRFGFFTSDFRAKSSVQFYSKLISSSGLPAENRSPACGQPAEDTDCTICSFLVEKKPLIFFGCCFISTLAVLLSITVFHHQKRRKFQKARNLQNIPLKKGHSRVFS

On to “FGF19 (wild type human fibroblast growth factor 19) (from UniProt O95750 23-216) (ligand)”, for which the EC50 (pM), ELK1 luciferase reporter in L6 cells was 52.5 pM and the Emax (fold potentiation), ELK1 luciferase reporter in L6 cells (fold potentiation) was 1.82.
